Measurements reported in US20020031818A1, “Modification of Mdm2 activity” (priority 2000, published 2002).

How the values were obtained:
[1] = target: T1, GST-Mdm2 (Homo sapiens, UniProt Q00987); experiment: In vitro conjugation of SUMO-1 to GST-Mdm2 (in vitro sumoylation); format: biochemical
T1 construct: made in house
Method: A. Time dependent Mdm2 sumoylation in vitro. Bacterially expressed and purified GST-Mdm2 was subjected to in vitro sumoylation reaction in the presence of E1, Ubc9, and ^35S-Sumos. Reaction was terminated after 10,30,50 or 60 minutes, Proteins were separated on 8% gel, Commassie stained, dryed and exposed overnight (upper panel). Lower panel depicts Commassie blue staining of Mdm2 forms. […] (Upper part) The specific Ubc-9-binding site peptide or a nonspecific peptide was added to the reaction for the indicated time periods. […] The lower panel depicts a Coomassie staining visualizing relative amounts of sumoylated and non-sumoylated forms of purified GST-Mdm2. C. The Mdm2 sumoylation assay was carried out in the presence of Ubc-9-binding site peptide (mu9bs) or a nonspecific peptide (mu9bs) which were added to the reaction at the indicated concentrations. […] Mdm2/p53 double null cells were transfected with Flag-tagged Mdm2, HA-tagged Sumo-1 and increasing amounts of the specific or nonspecific Ubc-9-peptides, respectively. Cells were harvested 36 h later and 500 μg of protein was immunoprecipitated using Mdm2 antibodies (2A10). Immunoprecipitated Mdm2 levels were detected using 2A10 antibodies (top). The same membrane was stripped and reprobed using monoclonal antibodies against Sumo-1 (Zymed, middle) to visualize the level of Sumo-1 conjugation to Mdm2 after Ubc-9-peptide expression.
A. Bacterially expressed and purified Mdm2 (1 μg) was incubated with ^32P-labeled Sumo-1, purified Aos1/Uba2 and Ubc9 (0.5 μg) for 60 min at 37° C. in conjugation buffer. For indicated time-periods in vitro translated wt or mutant p19^ARF (0.5 mg) was added to the sumoylation reactions. Upper panel depicts the amount of Sumoylated Mdm2, lower panel reveal the level of Mdm2 and Sumo-Mdm2 in Coomassie blue gel. B. Bacterially expressed and purified Mdm2 (1 μg) was incubated with in vitro-translated ^35S-Sumo, purified Aos1/Uba2 and Ubc9 (0.5 μg) for 60 min at 37° C. in conjugation buffer in the presence of the increasing amounts of bacculovirus-expressed p19^ARF (0, 0.1, 0.5, 1 μg; lanes 1-4 respectively). Bead-bound complexes were washed before being denatured in 3× Sample Buffer. Proteins were separated on 8% SDS-PAGE. Gel was stained with Coomassie blue to verify equal Mdm2 input (lower panel), dried and exposed to X-ray film, which depicts SUMO-1 conjugation to Mdm2 in the presence of the indicated p19 forms (upper panel). […] Double-null cells were transfected with Flag-tagged Mdm2 (1.5 μg), HA-tagged SUMO (1.5 μg) and p19 wt (1.5 μg). Cells were treated with MG132 (40 mM) for 5 h prior to protein preparation. […] (Left) Immunoprecipitated Mdm2 was detected using monoclonal Mdm2 antibodies (2A10, left). […]

[2] = target: T2, Ubc9 binding to Mdm2 (Homo sapiens, UniProt Q00987); experiment: In vitro binding of Ubc9 to GST-Mdm2; details: in vitro translated p19ARF and Ubc9, GST-Mdm2 1 μg
T2 construct: made in house; host or cells: GST-Mdm2: bacteria; Ubc9: in vitro translation
Method: FIGS. 17A and 17B. A. p19^ARF decreases Ubc9 binding to Mdm2. Bacterially expressed and purified GST-Mdm2 (1 μg) was incubated with ^35S-labeled in vitro translated p19^ARF and Ubc9 at the indicated ratios. After 30 min of incubation GSH beads bound-GST-Mdm2 were washed and separated on a 12% SDS-PAGE. Gel was dried and subjected to autoradiograph, depicting relative amounts of Ubc9 and p19^ARF bound to Mdm2. B. Bacterially expressed and purified GST-Mdm2 (1 μg) was phosphorylated by purified form of active p38 kinase as indicated. Phosphorylated or un-phosphorylated Mdm2 was incubated for 30 min with in vitro translated UbcH5b and Ubc9 (25 μl). Beads were washed and separated on a 12% SDS-PAGE. Gel was dried and exposed to X-ray film. Position of Ubc9 and UbcH5b is shown.
A prerequisite for Mdm2 sumoylation is the association of Ubc9, the SUMO conjugating enzyme, with Mdm2, which enables subsequent conjugation of SUMO-1 to Mdm2. Inhibition of Ubc9's association with Mdm2 attenuates Mdm2 sumoylation. Given the effect of p19^ARF on Mdm2 sumoylation, we proceeded to determine whether p19^ARF may alter Ubc9 binding to Mdm2. To this end we performed an in vitro binding assay, using in vitro translated p19^ARF and Ubc-9, as indicated. […] We next assessed possible changes in Ubc9 binding to Mdm2 upon its phosphorylation by p38.

[3] = target: Mdm2 (Homo sapiens, UniProt Q00987); experiment: Pulse-chase half-life of Mdm2 wt or S218A in normal human fibroblasts; format: cell-based; design: Normal human fibroblasts (TIG) were transfected with HA-Ub and wt or mutant Ubc9 plasmids as indicated; endogenous in cells; host or cells: normal human fibroblasts (TIG)
Method: FIG. 16A-16F. A. Activation of p38 increases Mdm2 ubiquitination in vivo. EJ cells were transfected with indicated plasmids. 36 h after transfection cells were harvested and Mdm2 was immunoprecipitated (2A10 antibodies). […] Middle panels show expression levels of Mdm2 and p19^ARF. Lower panels depict phospho-and total p38 levels. B. Mutation at Ser218 of Mdm2 abolishes p38 induced Mdm2 ubiquitination. Normal human fibroblasts were transfected with indicated plasmids. 36 h after transfection cells were harvested and lysed. Mdm2 was immunoprecipitated and proteins were separated on a 8% SDS-PAGE. […] C. Mutation at Ser218 of Mdm2 abrogates p19^ARF-induced Mdm2 degradation. […] Upper panels depict Mdm2-Sumo conjugates (detected via Sumo-1 anitbodies), as well as the 75 kD and 90 kD forms of Mdm2 (detected via Mdm2 antibodies). […] To monitor possible changes in amount of p19 bound to Mdm2 association was monitored using normalized Mdm2 levels at the indicated time-points after UV-treatment.
Normal human fibroblasts (NHF) were transfected with wt or S218A forms of Mdm2 expression vectors (4 μg). ^35S-methionine (1 mCi) was added to the cell cultures 24 h after transfection for 5 h (pulse) followed by chase (2 mM cold methionine) for the indicated time points. […] Immunoprecipated Mdm2 was washed, separated on 10% SDS-PAGE, and analyzed by autoradiography.

T1 sequence (Q00987 whole entry): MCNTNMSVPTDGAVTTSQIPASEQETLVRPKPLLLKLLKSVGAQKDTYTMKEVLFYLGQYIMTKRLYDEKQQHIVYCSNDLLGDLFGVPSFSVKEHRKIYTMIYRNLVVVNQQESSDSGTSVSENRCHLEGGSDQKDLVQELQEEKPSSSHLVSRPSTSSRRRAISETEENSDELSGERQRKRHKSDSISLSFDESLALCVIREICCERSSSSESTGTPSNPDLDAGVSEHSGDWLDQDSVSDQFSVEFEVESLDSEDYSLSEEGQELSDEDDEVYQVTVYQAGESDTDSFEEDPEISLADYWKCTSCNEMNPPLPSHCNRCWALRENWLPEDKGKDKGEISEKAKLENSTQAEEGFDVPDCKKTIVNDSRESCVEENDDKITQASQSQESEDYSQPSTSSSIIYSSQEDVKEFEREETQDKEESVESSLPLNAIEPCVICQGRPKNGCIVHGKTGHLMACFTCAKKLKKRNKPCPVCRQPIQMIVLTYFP
T2 sequence (Q00987 whole entry): as above
Mdm2, sequence (Q00987 whole entry): as above

B1: p19^ARF: Mdm2-regulating protein; in vitro translated, bacculovirus-expressed or transfected (protein)
chain: MGRRFLVTVRIQRAGRPLQERVFLVKFVRSRRPRTASCALAFVNMLLRLERILRRGPHRNPGPGDDDGQRSRSSSSAQLRCRFELRGPHYLLPPGARRSAGRLPGHAGGAARVRGSAGCARCLGSPAARLGPRAGTSRHRAIFAFRWVLFVFRWVVFVYRWERRPDRRA
in vitro sumoylation of Mdm2 with p19ARF purified from insect cells ([1]; 0, 0.1, 0.5, 1 μg bacculovirus-expressed p19ARF): inhibited in a dose-dependent manner
GST-Mdm2 sumoylation in vitro with in vitro-translated p19 forms ([1]; in vitro-translated wt or mutant p19ARF): efficient inhibition of GST-Mdm2 sumoylation in vitro
Ubc9 binding to Mdm2 in presence of increasing amounts of p19ARF [2]: dose dependent decrease in Ubc9 binding to Mdm2
effect on half-life of wt Mdm2 [3]: efficiently shorten Mdm2 half-life
